Experimental data published in article doi:10.1101/2025.08.19.670962, “Structural basis for binding of RILPL1 to TMEM55B reveals a lysosomal platform for adaptor assembly through a conserved TBM motif” (bioRxiv, 2025).
Several values for one entry are separate records, joined by “and”; a condition that tells them apart may be missing. Equal values may be shown once.

B1: His-RILPL1 391-403 (peptide)
peptide: GSGYTEQGQEALQHL
notes: linker after the His6 tag; also called His-tagged RILPL1 peptide; source: synthetic peptide (Genscript); not shown: His6, N-terminal, kept
B2: OCRL-PH domain (as used in ITC) (domain or fragment, UniProt Q01968 1-119, looked up)
chain: MEPPLPVGAQPLATVEGMEMKGPLREPCALTLAQRNGQYELIIQLHEKEQHVQDIIPINSHFRCVQEAEETLLIDIASNSGCKIRVQGDWIRERRFEIPDEEHCLKFLSAVLAAQKAQS
notes: OCRL, PH domain; residues 1-129 are stated for the His-tagged variant of the pull-down; Probably the construct of m14; source: E. coli, purified (protocol similar to that of TMEM55B, no ZnCl2 added)
B3: WDR81 657-668 (peptide)
peptide: DDLEQATEALDS
notes: WDR81, residues 657-668; source: synthetic peptide (Genscript)
B4: RILPL1 391-403 peptide (peptide)
peptide: GYTEQGQEALQHL
notes: also called RL1pep; RILPL1 peptide; source: synthetic peptide (Genscript)
B5: JIP3 889-903 (peptide)
peptide: SQSTEEATEATEVPD
notes: JIP3, residues 889-903; source: synthetic peptide (Genscript)
B6: JIP4 887-897 (peptide)
peptide: TAEEATEATEG
notes: JIP4, residues 887-897; source: synthetic peptide (Genscript)
B7: TMEM55B (80-166), untagged, wild type (domain or fragment)
chain: not shown
notes: N-terminal peptide left from the pET15b expression vector; TMEM55B, residues 80-166; numbers count on: UniProt Q86T03 isoform 2 (284 residues); also called WT TMEM55B region 80-166; source: E. coli BL21(DE3), purified (Ni-NTA, thrombin, second Ni-NTA, gel filtration)
B8: His-JIP4 887-897 (peptide)
peptide: GSTAEEATEATEG
notes: linker after the His6 tag; JIP4, residues 887-897; also called His-tagged JIP4 peptide; source: synthetic peptide (Genscript); not shown: His6, N-terminal, kept
B9: His-WDR81 657-668 (peptide)
peptide: GSDDLEQATEALDS
notes: linker after the His6 tag; WDR81, residues 657-668; also called His-tagged WDR81 peptide; source: synthetic peptide (Genscript); not shown: His6, N-terminal, kept

What was measured:
Conditions in all cases: both partners purified
[1] = target: T1, TMEM55B (80-160) (UniProt Q86T03-2 80-160); assay: ITC; peptide or OCRL PH domain injected into the cell with TMEM55B_(80-160); ITC200; Tris-HCl, 150mM NaCl, 1mM DTT, pH 7.5; single binding mode
T1 construct: TMEM55B, residues 80-160; numbers count on: UniProt Q86T03 isoform 2; source: E. coli, purified

[2] = target: B7; assay: SEC-MALS; Superdex75 10/300 GL, 1-1.5 mg/mL, TMEM55B_(80-166) alone or with RILPL1 peptide
[3] = target: T2, His-tagged PH domain of OCRL (1-129) (UniProt Q01968 1-129); assay: pull-down; 10μM His-tagged peptide or His-tagged OCRL PH domain as bait on Ni2+-agarose, 10μM untagged TMEM55B as prey; 20 mM Tris pH 8.0, 300 mM NaCl, 20mM imidazole, 10 mM β-mercaptoethanol; Coomassie
T2 construct: OCRL (OCRL1), PH domain, residues 1-129; also called OCRL PH domain; source: E. coli, purified (protocol similar to that of TMEM55B, no ZnCl2 added)
T2 sequence (looked up): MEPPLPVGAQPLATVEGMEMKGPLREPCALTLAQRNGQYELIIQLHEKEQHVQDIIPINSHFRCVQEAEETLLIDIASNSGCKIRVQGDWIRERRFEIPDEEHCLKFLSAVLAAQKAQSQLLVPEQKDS

[4] = target: B7; assay: as above

T1 sequence (Q86T03 73-153): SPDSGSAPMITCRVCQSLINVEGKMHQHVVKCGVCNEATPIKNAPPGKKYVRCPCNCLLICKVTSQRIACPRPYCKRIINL

| Binder | Kd [1] | dH [1] | stoichiometry N [1] | further results |
| --- | --- | --- | --- | --- |
| B1 | 680 nM and 590 nM and 1000 nM | -11.4 kcal/mol and -12.1 kcal/mol and -13.6 kcal/mol | 0.87 and 0.95 |  |
| B2 |  | -5.3 kcal/mol and -5.9 kcal/mol and -6.7 kcal/mol | 0.69 and 0.86 and 0.68 |  |
| B3 | 20 nM and 33 nM and 12 nM | -9 kcal/mol and -9.1 kcal/mol and -8.7 kcal/mol | 0.94 and 1.1 |  |
| B4 |  |  |  | stoichiometry N [2]: 1 |
| B5 | 127 nM and 126 nM and 103 nM | -8.2 kcal/mol and -9.3 kcal/mol | 1.2 and 0.99 and 1.1 |  |
| B6 | 2900 nM and 2200 nM and 3100 nM | -8.9 kcal/mol and -9.7 kcal/mol and -8.7 kcal/mol | 1 and 0.91 and 0.78 |  |
| B7 |  |  |  | binding result [3]: binds |
| B8 |  |  |  | binding result [4]: binds |
| B9 |  |  |  | binding result [4]: binds |
